± gives the uncertainty stated by the source.
Assay: amyloid nucleation score (Sup35N fusion, yeast selection) (log enrichment); library NNK2; higher = more nucleation; inactive = no reads after selection
In short: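 Psi-negative yeast expressed Sup35N fused to peptides of 20 random codons. They were induced 24 hours with 100 μM copper sulfate, grown 7 days at 30°C without adenine and uracil, and their plasmid inserts from input and output were Illumina-sequenced. The nucleation score is the DiMSum log enrichment of output over input reads, centred on the mode score of non-aggregating sequences. Sequences with under 100 input reads were excluded.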

Substance	amyloid nucleation score
YSAPCGGDGESWDGFKMMEH	0.053 ± 1.1
IAYATPPSHGAC	1.32 ± 0.15
IDCSFSFFVSPFRHPHSQED	4.87 ± 0.092
GMRWSFGVLASRSFCVKWCP	5.57 ± 0.09
SKSEIHCYLMMGRHLFG	4.5 ± 0.11
VRTWESIVCCI	4.14 ± 0.051
RCEFSACMCGVCGAYKCMRF	5.3 ± 0.064
NIRMVNLLAYVCPEVIREAC	inactive
RKISMTN	-0.573 ± 0.3
ENGIICR	0.088 ± 0.49
EMNFKALLKGVNGFVWDGVF	1.43 ± 0.21
MYTKVNF	-0.93 ± 0.76
AGMGRSVWSKRFRDISRVSS	0.511 ± 0.56
FYCSNSKFW	3.5 ± 0.074
HSWAKMFMMLWGTMSRWDRA	-0.205 ± 0.62
WSLKKLITDRFGSSCSAALH	inactive
TYALVTRLFCFLVSEHWVTL	-0.047 ± 0.26
SGIMRIE	inactive
TVWGYSSDLKLLEFISIGTQ	2.71 ± 0.12
RFNYEP	0.262 ± 0.46
YKMPK	0.443 ± 0.8
YNKGWR	inactive
HIICSRHSNEAKLRMKSKAI	-1.03 ± 0.61
VNCPRIMGSIGRLFVVYTQM	8.319 ± 0.06
DSPRRTFIVQASHFTVYLTR	8.111 ± 0.058

Substance	amyloid nucleation score
VRFHVWDKGHRMI	1.47 ± 0.18
FCCFRVYVDMENLSNSALTL	7.557 ± 0.033
TVFDRNMDTGIMCIVMSWDN	-0.318 ± 0.48
RPVCKFL	0.275 ± 0.5
FGFWDLMSCTSRMGTIIRLY	inactive
HLGRG	0.126 ± 0.45
RDVRQVQRWSYCWRARTRSA	1.19 ± 0.25
MYSYFSRSMTHTNNGLSSLA	4.38 ± 0.045
CMFGEEFGLNKNVVGSLGLY	inactive
AETTFNIENDKTYIIYDCAE	-0.161 ± 0.39
DDVSIL	0.14 ± 1
IWQMLVMMKAWKMCPTLVRY	1.09 ± 0.41
LRYRDASEALSYLCMQYDVI	2.94 ± 0.05
LMMKKTGCTQFISRYLVRIY	-1.42 ± 1
PFDFWRLISSLG	0.531 ± 0.81
DNCSLPSGTMGSDNSGGRIQ	-0.444 ± 0.32
RERDNVMDIVGSAMRDCCQF	0.282 ± 0.25
LNLFWKQSGTVRLDDGWRSV	0.969 ± 0.74
ANMCPYAHRVTGVMFCLLPW	inactive
RNGVLAIGLY	-0.759 ± 0.63
HSLVCDN	-0.122 ± 0.39
LVRMPRGTSFGRCNVCV	inactive
RKRVVSQEPCL	-0.996 ± 0.78
IDPADVGILSCCFLNDSKHE	0.467 ± 0.46
TYFLGPLVSNSLRYY	4.027 ± 0.04

Substance	amyloid nucleation score
LDIYYFKKNSWAFHGSAGYP	1.87 ± 0.11
VVLPFGMHAWYTKDNVEISS	0.181 ± 0.15
CMFWSHYTIRFSSWWLGGCE	-0.149 ± 0.79
CAPVCFFRGSLRCRSRLTWR	-0.221 ± 1.1
GIMQCFGSMRMQWCNSDKEC	5.021 ± 0.037
SSRVVVLNYATRRGGQVSGR	0.496 ± 0.38
EFYPTHDFVQRDRRVTRLRI	0.524 ± 0.81
TSTLNRDDG	0.367 ± 0.34
IFFFWVLMRYW	-0.689 ± 0.55
WLYSIDYNFLKRVIGYCYRN	inactive
FFFVLFGFWYKTRWSMCISK	2.31 ± 0.22
SCYNFVWYTCGLYMWLNCLL	-0.793 ± 0.32
NTLSRYHFNGVRVYCEMTAL	inactive
LVNDHGVSVVSCGTD	0.053 ± 0.79
NESNYRVVRGKFKSEFRAEL	3.61 ± 0.13
NYQIHVRVIRHLMTLGISAQ	0.236 ± 0.35
MSVVVLWHGLCLQLYMCDA	-0.23 ± 0.65
FRCAE	3.84 ± 0.091
LGPALFICSDEGDMPL	-0.598 ± 0.63
HNNFIFYFLLNLMICVHYGQ	6.066 ± 0.036
CHGSCSYETSVVCYMWSGKG	3.21 ± 0.14
IPAMETSTLAGYGPYSHNFG	-0.629 ± 0.26
RFCWICCHVQFFYELHITHA	inactive
FAMDSIKRFFKIIIFSRYT	-1.34 ± 1.1
LESYSQCTLTHSNCVLTDEC	0.909 ± 0.57

Substance	amyloid nucleation score
SLSLGLSSCEPYYAVC	-0.276 ± 0.28
CKSEYIWYPKFAMGSFDPSQ	inactive
YALRLLHGSYNSNT	3.31 ± 0.084
YGYKMVTSYVGFL	0.753 ± 0.81
YMCCFYAVGFPFDYKLGFVR	4.35 ± 0.068
GVKWSVSFKNWHYWKSMSVV	1.26 ± 0.66
LTGFLNGAGNN	1.75 ± 0.12
FCLVY	0.744 ± 0.19
NNMKVDAVVYIATKPGHWDQ	7.589 ± 0.034
FFSNIFIEASVCELGSNANV	1.03 ± 0.23
GFSLC	0.541 ± 0.66
CRWDFVLWRFLCSIKKDWVT	-0.386 ± 0.79
RFRHGNDYGSYYFCGLLGSM	0.264 ± 0.46
ISSICFRNRDNFFLRAFGIG	inactive
LSFSNPWFMIKSRDMFVCIG	0.792 ± 0.8
ILSCVARGCYYTTL	-1.38 ± 1.1
QCYAMSSLMMLYLFFLWGCG	-1.05 ± 0.55
QSRSYFRRGVTSCLHPGWET	0.452 ± 0.53
ELRPIHIFKFFT	-0.253 ± 0.4
NDTRSLLML	0.259 ± 0.24
SPSDAL	-0.578 ± 0.36
TNDASYSIDLWW	-0.304 ± 0.18
SIWYSNYNNSRKIPSAYKKW	2.34 ± 0.071
AISLYMFVRDIAKSILRQVC	0.269 ± 0.5
LNLKRLLLQLFSMPMPVFHV	-0.023 ± 0.49

Substance	amyloid nucleation score
FLMGVPEIFFPLVVSDYMYV	inactive
FMVILSGYIVL	0.429 ± 0.66
LWITVRATPRLDRS	1.03 ± 0.21
SHIDMFAQECYLCFANVHRR	2.78 ± 0.21
NLVAMPDQVAGSTCRVCNNN	0.486 ± 0.51
CASWLVCMFRGMFRVLNTSG	2.82 ± 0.17
SNSDIWHNARHPIDLATYC	0.293 ± 0.61
DSFLTLTCGFRSNALYCWGV	-0.663 ± 0.55
PMLEFWFMAWIEMFTYKKCC	1.8 ± 0.53
ADSCKVMKWDRRPLEDFNWC	-0.041 ± 0.19
TADISLYLRHST	6.442 ± 0.049
MLDGTSCICVVIEA	-0.035 ± 0.21
HYVPDPDITL	-0.504 ± 0.32
PQHYVMGYVCWDVSVVLRSP	2.91 ± 0.092
TSCSTTAALEVNIRMTDVGV	1.59 ± 0.14
GKGWKSVVYSNMGRVSGCCK	2.81 ± 0.12
SFLLRWSRFVYICYSICCMI	-1.02 ± 0.55
SQGGIRWY	-0.842 ± 0.38
LCLIGRYRMSERALRLRWLV	2.54 ± 0.11
QEVRSF	0.6 ± 0.66
PLERKRLSHCRWLGRRRLGG	1 ± 0.34
YFIGFSSSMNFGYFMRVYRI	inactive
WDALGNVRRAMWVPS	0.048 ± 0.41
EGVVSVRVFKYTGSYG	0.599 ± 0.8
DISWYCGDHGSVVVECRNDL	2.63 ± 0.069

Substance	amyloid nucleation score
MCGNWLD	3.05 ± 0.055
LWLVSKAYRYLPYSDWKSAL	0.161 ± 0.77
NACILNSM	inactive
ILGLFSFPKMPMVDYNIWMR	-0.137 ± 1.1
FTDCHWSDLLRSFVAWYDIV	0.918 ± 0.58
YMLLRSYVFTKLLRLHCYRN	inactive
PNRIFFTLFCLTKYIIPMFM	-1.33 ± 0.75
QWCLSNNVLWEMGVW	inactive
LQCEIKPMGDTIMW	1.47 ± 0.54
LFQSLNLISINSVVPYEPVT	2.43 ± 0.092
ARMRFKRRKCCNAIWVRSSV	0.398 ± 0.3
SLGEGISFIVWCDGILLLGC	-1.15 ± 0.76
WLKVLG	4.571 ± 0.028
VNMLEQKGRMSDETPCTATP	0.107 ± 0.79
VFSDWMNCRYLMLRVCRVPR	0.629 ± 0.56
ALCGCPCRKPSATVINLPLF	0.165 ± 0.37
NSINRMVVQLVG	3.9 ± 0.087
MITDGGASVGLNYRYS	-0.524 ± 0.33
FALNPAESLHIRYIGLALF	-1.02 ± 0.62
LQSKAGEPLGRDMRLFLVPV	0.698 ± 0.58
RLTVRWAYMSLLTVGQGGIM	0.21 ± 1
AGWRLVTQDRLSLLNQTDVF	1.05 ± 0.36
NGGPHRPDSLVWYLEHKMRQ	inactive
SALHCISLDVHRIFGSKNAR	1.36 ± 0.46
IWSCRGQLGSSFTPSGNCTG	1.05 ± 0.37

Substance	amyloid nucleation score
CHTTMPGIVCKLGTYARGEG	6.638 ± 0.066
HGGPS	-0.571 ± 0.38
KSHHGWSTIRCNRWYIS	inactive
SSLEFYVFWYP	-1.14 ± 1
SLSNVLINCVLVFCW	6.53 ± 0.076
LAGCSMSGVVEC	1.13 ± 0.22
AFLRFMKRRQLNLLKYAFCC	4.01 ± 0.084
CRVCRNWIWGTLSSGVTSRL	-0.61 ± 0.49
GLYIEKARQRYPRSQHLIAM	-0.419 ± 0.49
ICDDNVAVEWLRLTVCTFRL	0.396 ± 0.28
HMMHSWAFL	3.81 ± 0.047
FFIYGNSHVSVIRYWTCTLT	7.391 ± 0.049
GLQSVDGLQNTYLGSNAVVD	0.87 ± 0.26
AILSNVEVLYTRFRIKSCKL	-0.435 ± 0.34
TYSTLFDFRMI	0.099 ± 0.31
QSLIDSVHVALHKLLRRYVK	-0.232 ± 0.65
NLMVVRRSDHSRPGNCHWQA	0.381 ± 0.3
SWKDYHN	inactive
MAYGGPFSVLSSWDDADNGY	-0.05 ± 0.5
SCFRC	9.804 ± 0.047
DVVFFVSYW	3.86 ± 0.098
